Data reported in article PMC3887095.

Assays:
[1] = molecular target: RKLM+S41A HIV-1 CA-NC tubular complexes (HIV-1); assay: co-sedimentation; 5 µl of assembled CA-NC complexes mixed with 125 µg of HeLa cell lysate, NaCl adjusted to 150 mM, 1 h at room temperature; pelleted through a 60% sucrose cushion at 100,000 x g for 1 h at 4°C; CPSF6 in the pellet measured by LI-COR and normalized by CA-NC
[2] = molecular target: RKLM+T107I HIV-1 CA-NC tubular complexes (HIV-1); assay: as above
[3] = molecular target: RKLM+T107I HIV-1 CA tubes (HIV-1); assay: co-sedimentation; assembled CA tubes (5 µM) incubated 1 h with HeLa cell extracts (500, 250 or 125 µg) in 100 µl of 50 mM Tris pH 8, 150 mM NaCl, 5 mM MgCl2, 0.5 mM EDTA; pelleted 5 min at 5,000 x g and washed; non-reducing SDS-PAGE and quantitative immunoblotting for CPSF6 and CA; in one experiment with or without 5 µM CsA
[4] = molecular target: T54A+A105T HIV-1 CA tubes (HIV-1); assay: as above

Q: For “endogenous CPSF6 (from UniProt Q16630 1-551) (natural protein)”, which percent weaker binding than RKLM [1] is on record?
A: 7%

Q: And the reduced binding to CPSF6, percent [2]?
A: 50%

Q: And the reduced binding to CPSF6, percent [3]?
A: 50%

Q: What about the quantity of CPSF6 brought down relative to T54A CA tubes (fold of T54A CA tubes) [4] of the same substance?
A: 0.33
